Results published in PMC3149608, “A Novel Acyl-CoA Beta-Transaminase Characterized from a Metagenome” (PLoS ONE, 2011).

Experiments:
[1] = target: T1, AtoA/AtoD complex (butyrate-acetoacetate CoA transferase) (Cloacimonas acidaminivorans (SeqCode), UniProt B0VIH1+B0VIH2); experiment: CoA transferase assay, acetoacetyl-CoA formation at […] nm; format: biochemical; settings: 4 mM MgCl2, 50 mM Tris/HCl pH 8.1
T1 construct: each subunit in pEXP-5-NT/TOPO, E. coli, mixed equimolar; by primers AtoA (M)ALDKRAM...ERVNTF, AtoD (M)VQIISA...VLAKEN
T1 sequence (B0VIH1 1-218): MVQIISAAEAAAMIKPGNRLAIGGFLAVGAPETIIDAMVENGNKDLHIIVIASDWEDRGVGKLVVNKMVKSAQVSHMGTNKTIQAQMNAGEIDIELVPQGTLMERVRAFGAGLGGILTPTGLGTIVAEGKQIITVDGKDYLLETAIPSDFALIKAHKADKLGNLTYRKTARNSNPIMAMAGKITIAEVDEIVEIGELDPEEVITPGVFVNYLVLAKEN
T1 sequence (B0VIH2 1-217): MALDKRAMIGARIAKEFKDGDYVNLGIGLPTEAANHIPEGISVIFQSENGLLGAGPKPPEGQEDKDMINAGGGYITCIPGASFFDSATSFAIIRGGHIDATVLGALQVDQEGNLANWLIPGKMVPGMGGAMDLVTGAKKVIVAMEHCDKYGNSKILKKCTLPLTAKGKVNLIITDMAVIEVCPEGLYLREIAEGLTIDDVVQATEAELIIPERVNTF

[2] = target: T2, Kat (HemL-like), 3-aminobutyryl-CoA aminotransferase (Cloacimonas acidaminivorans (SeqCode), UniProt B0VH76); experiment: spectrophotometric, acetoacetyl-CoA formation at […] nm; format: biochemical; settings: 25 µM (3S)-3-aminobutyryl-CoA; 50 mM Tris/HCl pH 8.1, 5 mM MgCl2
T2 construct: full-length CDS in pEXP-5-NT/TOPO, E. coli; by primers starts (M)AEKLKLA, ends EVKKML
T2 sequence (B0VH76 1-414): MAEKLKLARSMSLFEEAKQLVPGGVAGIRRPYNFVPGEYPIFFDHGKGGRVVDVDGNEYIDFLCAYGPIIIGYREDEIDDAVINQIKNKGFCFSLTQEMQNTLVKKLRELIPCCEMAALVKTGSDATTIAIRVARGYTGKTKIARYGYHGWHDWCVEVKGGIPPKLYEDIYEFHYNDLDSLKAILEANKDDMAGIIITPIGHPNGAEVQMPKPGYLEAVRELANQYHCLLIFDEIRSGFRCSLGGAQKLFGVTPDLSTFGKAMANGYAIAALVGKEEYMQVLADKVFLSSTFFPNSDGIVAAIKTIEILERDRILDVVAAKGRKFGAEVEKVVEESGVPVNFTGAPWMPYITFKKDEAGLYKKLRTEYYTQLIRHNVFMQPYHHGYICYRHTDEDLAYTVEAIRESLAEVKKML

purified protein [3] = substrate: C[C@H](N)CC(=O)SCCNC(=O)CCNC(=O)[C@H](O)C(C)(C)COP(=O)(O)OP(=O)(O)OC[C@H]1O[C@@H](n2cnc3c(N)ncnc32)[C@H](O)[C@@H]1OP(=O)(O)O; experiment: purified protein; format: biochemical, Cloacimonas acidaminivorans (SeqCode); settings: 50 mM α-ketoglutarate, 50 mM Tris/HCl pH 8.1, 5 mM MgCl2
purified protein [4] = substrate: O=C(O)CCC(=O)C(=O)O; experiment: purified protein; format: biochemical, Cloacimonas acidaminivorans (SeqCode); settings: 25 µM (3S)-3-aminobutyryl-CoA, 50 mM Tris/HCl pH 8.1, 5 mM MgCl2

In the case of `CC(=O)SCCNC(=O)CCNC(=O)[C@H](O)C(C)(C)COP(=O)(O)OP(=O)(O)OC[C@H]1O[C@@H](n2cnc3c(N)ncnc32)[C@H](O)[C@@H]1OP(=O)(O)O` [acetyl-CoA], the “CoA transferase assay, acetoacetyl-CoA formation at 310 nm” value ([1]; 10 mM acetoacetate) is reported as “formation in vitro of acetoacetyl-CoA and acetate from acetoacetate and acetyl-CoA”.

`CC(=O)CC(=O)O` [acetoacetate] was tested, and the “CoA transferase assay, acetoacetyl-CoA formation at 310 nm” value ([1]; acetyl-CoA as CoA donor) was “formation in vitro of acetoacetyl-CoA and acetate from acetoacetate and acetyl-CoA”.

For `CC(=O)C(=O)O` [pyruvate], the “K m (M)” value [2] was 20.1±1.3 10^−3 M.

B1: Kat (HemL-like), 3-aminobutyryl-CoA aminotransferase (Candidatus Cloacimonas acidaminivorans str. Evry) (protein)
chain: MAEKLKLARSMSLFEEAKQLVPGGVAGIRRPYNFVPGEYPIFFDHGKGGRVVDVDGNEYIDFLCAYGPIIIGYREDEIDDAVINQIKNKGFCFSLTQEMQNTLVKKLRELIPCCEMAALVKTGSDATTIAIRVARGYTGKTKIARYGYHGWHDWCVEVKGGIPPKLYEDIYEFHYNDLDSLKAILEANKDDMAGIIITPIGHPNGAEVQMPKPGYLEAVRELANQYHCLLIFDEIRSGFRCSLGGAQKLFGVTPDLSTFGKAMANGYAIAALVGKEEYMQVLADKVFLSSTFFPNSDGIVAAIKTIEILERDRILDVVAAKGRKFGAEVEKVVEESGVPVNFTGAPWMPYITFKKDEAGLYKKLRTEYYTQLIRHNVFMQPYHHGYICYRHTDEDLAYTVEAIRESLAEVKKML
notes: full-length CDS in pEXP-5-NT/TOPO, E. coli; by primers starts (M)AEKLKLA, ends EVKKML
B1 was tested, and the kcat (purified protein [3]) was 1.8 ± 0.2 s⁻¹, the kcat/Km (purified protein [3]) was 420000 M⁻¹ s⁻¹ and the kcat (purified protein [4]) was 1.8 ± 0.1 s⁻¹. It also gave a kcat/Km (purified protein [4]) of 620 M⁻¹ s⁻¹.
